# Measured values as given in patent US20200147215A1, “DRUG CONJUGATES WITH PHOTOCLEAVABLE SOLUBILITY MODULATORS” (priority 2017, published 2020).
# Read-outs that look alike come from different tables or passages of the source.
# Tests used:
# [1] = Solubility of non-polar-tag insulin conjugates vs insulin (shaken with PBS pH 7.2, supernatant analyzed)
# Experimental: (§1) Diazo was allowed to react for 24 hours. Reaction progress may be monitored on HPLC with a C18 column.
# It was hypothesized solubility would be further lowered by the Val-Val-Val peptide being allowed to pack more efficiently than in the Val-Pro-Ile peptide.
# [2] = Photolysis release of insulin from conjugate vs irradiation time; assay type: physicochemical
# Experimental: as §1
# [3] = Photolysis of G2PEA-insulin dissolved in DMSO, analyzed by gel; assay type: physicochemical; details: over the irradiation time period, FIG. 35
# Source text: The lower band is insulin.
# [4] = Isoelectric point (IEF gel); assay type: physicochemical; details: FIG. 33
# [5] = stated in description, no experiment; cited from earlier work
# [6] = Quantitative solubility of G2PEA-insulin and insulin in buffer at pH 7.2 and pH 5.4
substance,measurement,setting,value
CD-insulin: drug conjugate of insulin and a cyclododecyl amine non-polar moiety joined by a DMNPE-type photocleavable group,Solubility mM,[1]; Table 3,0.009 mM
same,Solubility mg/ml,[1]; Table 3,0.06 mg/mL
same,Solubility mM,[1]; Table 5,0.009 mM
same,Solubility mg/ml,[1]; Table 5,0.06 mg/mL
same,photolysis release rate constant k,"[2]; FIG. 7, insulin released into solution v. irradiation time",0.154 min-
same,photolysis release rate constant k,"[2]; fit B=A0(1−exp(−kt)), FIG. 19",0.154 min⁻¹
"G2PEA-insulin drug conjugate: drug conjugate of insulin and glutamic acid condensed with two 1-(2-Aminoethyl)pyrrolidine moieties (G2PEA), photocleavable link",conversion to insulin upon irradiation,[3],"all of the G2PEA insulin is consumed, and insulin is released"
same,isoelectric point,[4],~7
insulin [reference compound],Solubility mM,[1]; Table 3,0.708 mM
same,Solubility mg/ml,[1]; Table 3,4.11 mg/mL
same,Solubility mM,[1]; Table 5,0.708 mM
same,Solubility mg/ml,[1]; Table 5,4.11 mg/mL
same,isoelectric point,[5],~5.4
same,Solubility,"[6]; Table 7, pH 7.2 buffer",1053.3 ± 158.1 µM
same,Solubility,"[6]; Table 8, pH 5.4",17.1 ± 2.1 µM
